Broadly, the stoichiometry N is the number of molecules, sites or subunits per partner or assembly.

Changes are numbered by the printed parent chain. In names and notes the source's numbering stands. Several values for one entry are separate records, joined by “and”; a condition that tells them apart may be missing. Equal entries are not always repeated.

The target of data set [1] is AcrA^S362C modified with biotin-maleimide, the immobilized AcrA (E. coli) (UniProt P0AE06). Description: SPR. A general note: Surface plasmon resonance follows binding to a sensor surface in real time, without labels.
Data set [2] deals with the molecule itself. Description: SEC-MALS. For orientation: SEC sorts molecules by how far they enter the pores of the column.
Data set [3] concerns the molecule itself. Description: SDS-PAGE under reducing and non-reducing conditions.
Data set [4] deals with the molecule itself. Description: SEC-MALS. This is another data set of the same source.

Consider “TolC^YFRE, TolC mutant containing Y362F and R367E substitutions (open variant) (from UniProt P02930 23-493) (natural protein)”, for which, in data set [1], the KD1 (slow complexes, two populations of AcrA) is 0.02 µM and the KD2 (fast complexes, two populations of AcrA) amounted to 6.7 µM.
The corresponding values for “TolC, outer membrane channel (from UniProt P02930 23-493) (natural protein)” are 0.01 µM and 0.11 µM.

B1: AcrA^l, native lipid-modified AcrA (natural protein)
chain: CDDKQAQQGGQQMPAVGVVTVKTEPLQITTELPGRTSAYRIAEVRPQVSGIILKRNFKEGSDIEAGVSLYQIDPATYQATYDSAKGDLAKAQAAANIAQLTVNRYQKLLGTQYISKQEYDQALADAQQANAAVTAAKAAVETARINLAYTKVTSPISGRIGKSNVTEGALVQNGQATALATVQQLDPIYVDVTQSSNDFLRLKQELANGTLKQENGKAKVSLITSDGIKFPQDGTLEFSDVTVDQTTGSITLRAIFPNPDHTLLPGMFVRARLEEGLNPNAILVPQQGVTRTPRGDATVLVVGADDKVETRPIVASQAIGDKWLVTEGLKAGDRVVISGLQKVRPGVQVKAQEVTADNNQQAASGAQPEQSKS
modifications: N-terminal lipid modification at C25
Take B1: the “stoichiometry N” value in data set [2] was determined as 2.

B2: AcrA^G363C, lipid-modified AcrA with the G363C substitution in the MP domain (natural protein)
chain: B1 chain with G339C
modifications: N-terminal lipid modification at C25; disulfide bond between the two chains
As to B2, in data set [3], the “stoichiometry N” value was 2.

B3: AcrB^S1043C biotinylated at C1043 (Cys1043^bio), the immobilized AcrB (natural protein)
chain: MPNFFIDRPIFAWVIAIIIMLAGGLAILKLPVAQYPTIAPPAVTISASYPGADAKTVQDTVTQVIEQNMNGIDNLMYMSSNSDSTGTVQITLTFESGTDADIAQVQVQNKLQLAMPLLPQEVQQQGVSVEKSSSSFLMVVGVINTDGTMTQEDISDYVAANMKDAISRTSGVGDVQLFGSQYAMRIWMNPNELNKFQLTPVDVITAIKAQNAQVAAGQLGGTPPVKGQQLNASIIAQTRLTSTEEFGKILLKVNQDGSRVLLRDVAKIELGGENYDIIAEFNGQPASGLGIKLATGANALDTAAAIRAELAKMEPFFPSGLKIVYPYDTTPFVKISIHEVVKTLVEAIILVFLVMYLFLQNFRATLIPTIAVPVVLLGTFAVLAAFGFSINTLTMFGMVLAIGLLVDDAIVVVENVERVMAEEGLPPKEATRKSMGQIQGALVGIAMVLSAVFVPMAFFGGSTGAIYRQFSITIVSAMALSVLVALILTPALSATMLKPIAKGDHGEGKKGFFGWFNRMFEKSTHHYTDSVGGILRSTGRYLVLYLIIVVGMAYLFVRLPSSFLPDEDQGVFMTMVQLPAGATQERTQKVLNEVTHYYLTKEKNNVESVFAVNGFGFAGRGQNTGIAFVSLKDWADRPGEENKVEAITMRATRAFSQIKDAMVFAFNLPAIVELGTATGFDFELIDQAGLGHEKLTQARNQLLAEAAKHPDMLTSVRPNGLEDTPQFKIDIDQEKAQALGVSINDINTTLGAAWGGSYVNDFIDRGRVKKVYVMSEAKYRMLPDDIGDWYVRAADGQMVPFSAFSSSRWEYGSPRLERYNGLPSMEILGQAAPGKSTGEAMELMEQLASKLPTGVGYDWTGMSYQERLSGNQAPSLYAISLIVVFLSLAALYESWSIPFSVMLVVPLGVIGALLAATFRGLTNDVYFQVGLLTTIGLSAKNAILIVEFAKDLMDKEGKGLIEATLDAVRMRLRPILMTSLAFILGVMPLVISTGAGSGAQNAVGTGVMGGMVTATVLAIFFVPVFFVVVRRRFSRKNEDIEHCHTVDHH
modifications: maleimide-PEG2-biotin on C1043
With B3, the “stoichiometry N” value in data set [4] was 2 and 3.

Values taken from paper PMC3082741 (Chemistry & biology, 2011).
